Where a chain is given by its changes, count along the chain named.
Molecular target: T1, soluble human GCGR extracellular domain (human, UniProt P47871 26-136, limits assumed)
T1 construct: also called soluble GCGR; glucagon receptor extracellular domain
Assay: SPR (Biacore), purified antibody re-tested; format as described for the screen: antibody captured by anti-mouse Fc, soluble human GCGR extracellular domain as analyte, 25 C
Method: In addition, supernatants were screened for binding to human GCGR using a Biacore SPR system. Briefly, anti-mouse Fc antibody (Sigma-Aldrich) was immobilized on all four flow cells of a CM5 chip using amine coupling reagents (GE Healthcare LifeSciences). Hybridoma supernatants were diluted three-fold with PBS-P buffer (PBS containing 0.005% P20-PBS-P) and injected for 30 seconds over flow cells 2, 3 and 4 to capture the test antibodies and using flow cell 1 as a reference. The next step was an injection of soluble human GCGR extracellular domain (100 nM in PBS-P buffer) at a flow rate of 50 μL/min and monitoring of the binding kinetics at 25° C. Kinetic data were collected over time and fit using the simultaneous global fit equation to yield affinity constants (KD values) for each antibody.

T1 sequence (P47871 26-136 limits assumed): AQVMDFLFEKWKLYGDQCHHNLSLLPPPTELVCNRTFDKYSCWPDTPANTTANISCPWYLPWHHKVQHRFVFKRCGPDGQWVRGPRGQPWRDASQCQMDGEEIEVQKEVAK

B1: 6B5 (antibody, V domains shown)
VH: QVQLQQSGTELVRPGTSVKISCKASGFTFTNHWLGWVKQRPGHGLEWIGDIYPGGYYINYNEKFKGKATLTADTSSSTAYMQLSSLTSEDSAVYFCARHTNYGSDYWGQGTTLTVSS
VL: DVLMTQIPLSLPVSLGDQASISCRSSQSIVDSYGNTFLEWYLQKPGQSPKLLIYKVSNRLSGVPDRFSGTGAGTDFTLKISRVEAEDLGIYYCFQGSHVPWTFGGGTKLEIK
notes: Mouse hybridoma antibody, purified; also called anti-GCGR antibody 6B5
Kd: 0.2 nM

B2: 13G9 (antibody, V domains shown)
VH: QVQLQQSGAELVRPGTSVKISCKASGYTFTNYWLGWVKQRPGHGLEWIGDIYPGGDYNNYNGKFKGKATLTADTSSSTAYIQLSSLTSEDSAVYFCVRSDDGYSWGQGTTLTVSS
VL: DVLMTQTPLSLPVSLGDQASISCRSSQSIVDSYGNTYLEWYQQKPGQSPTLLIYKVSNRFAGVPDRFSGSGSGTDFTLKISRVEAEDLGVYYCFQGSHIPWTFGGGTKVEIK
notes: Mouse hybridoma antibody, purified; also called anti-GCGR antibody 13G9
Kd: 0.2 nM

B3: 14F4 (antibody, V domains shown)
VH: QVQLQQSGAELVRPGTSVNMSCKATGYTFTNYWIGWVKQRPGHGLEWIGDIFPGGFYSNYNEKFKGKATLTTDTSSSTGYMQLSSLTSEDSAIYYCARIWDRGFDYWGQGTTLTVSS
VL: B1 VL with I7S, F37Y, L60F, T70S, A72S, L88R, I90L, W101Y
notes: Mouse hybridoma antibody, purified; also called anti-GCGR antibody 14F4
Kd: 0.6 nM

— patent US20210284746A1 (NGM BIOPHARMACEUTICALS, published 2021)
